The results in this text go back to patent publication US20150017651A1 (University of Texas, published 2015).

This assay concerns the target mTOR (human, UniProt P42345 1-2549). Description: IP-Western, BE3 or SKGT4 cells.

B1: Gli2 (other)
chain: METSASATASEKQEAKSGILEAAGFPDPGKKASPLVVAAAAAAAVAAQGVPQHLLPPFHAPLPIDMRHQEGRYHYEPHSVHGVHGPPALSGSPVISDISLIRLSPHPAGPGESPFNAPHPYVNPHMEHYLRSVHSSPTLSMISAARGLSPADVAQEHLKERGLFGLPAPGTTPSDYYHQMTLVAGHPAPYGDLLMQSGGAASAPHLHDYLNPVDVSRFSSPRVTPRLSRKRALSISPLSDASLDLQRMIRTSPNSLVAYINNSRSSSAASGSYGHLSAGALSPAFTFPHPINPVAYQQILSQQRGLGSAFGHTPPLIQPSPTFLAQQPMALTSINATPTQLSSSSNCLSDTNQNKQSSESAVSSTVNPVAIHKRSKVKTEPEGLRPASPLALTQGQVSGHGSCGCALPLSQEQLADLKEDLDRDDCKQEAEVVIYETNCHWEDCTKEYDTQEQLVHHINNEHIHGEKKEFVCRWQACTREQKPFKAQYMLVVHMRRHTGEKPHKCTFEGCSKAYSRLENLKTHLRSHTGEKPYVCEHEGCNKAFSNASDRAKHQNRTHSNEKPYICKIPGCTKRYTDPSSLRKHVKTVHGPDAHVTKKQRNDVHLRTPLLKENGDSEAGTEPGGPESTEASSTSQAVEDCLHVRAIKTESSGLCQSSPGAQSSCSSEPSPLGSAPNNDSGVEMPGTGPGSLGDLTALDDTPPGADTSALAAPSAGGLQLRKHMTTMHRFEQLKKEKLKSLKDSCSWAGPTPHTRNTKLPPLPGSGSILENFSGSGGGGPAGLLPNPRLSELSASEVTMLSQLQERRDSSTSTVSSAYTVSRRSSGISPYFSSRRSSEASPLGAGRPHNASSADSYDPISTDASRRSSEASQCSGGSGLLNLTPAQQYSLRAKYAAATGGPPPTPLPGLERMSLRTRLALLDAPERTLPAGCPRPLGPRRGSDGPTYGHGHAGAAPAFPHEAPGGGARRASDPVRRPDALSLPRVQRFHSTHNVNPGPLPPCADRRGLRLQSHPSTDGGLARGAYSPRPPSISENVAMEAVAAGVDGAGPEADLGLPEDDLVLPDDVVQYIKAHASGALDEGTGQVYPTESTGFSDNPRLPSPGLHGQRRMVAADSNVGPSAPMLGGCQLGFGAPSSLNKNNMPVQWNEVSSGTVDALASQVKPPPFPQGNLAVVQQKPAFGQYPGYSPQGLQASPGGLDSTQPHLQPRSGAPSQGIPRVNYMQQLRQPVAGSQCPGMTTTMSPHACYGQVHPQLSPSTISGALNQFPQSCSNMPAKPGHLGHPQQTEVAPDPTTMGNRHRELGVPDSALAGVPPPHPVQSYPQQSHHLAASMSQEGYHQVPSLLPARQPGFMEPQTGPMGVATAGFGLVQPRPPLEPSPTGRHRGVRAVQQQLAYARATGHAMAAMPSSQETAEAVPKGAMGNMGSVPPQPPPQDAGGAPDHSMLYYYGQIHMYEQDGGLENLGSCQVMRSQPPQPQACQDSIQPQPLPSPGVNQVSSTVDSQLLEAPQIDFDAIMDDGDHSSLFSGALSPSLLHSLSQNSSRLTTPRNSLTLPSIPAGISNMAVGDMSSMLTSLAEESKFLNMMT
For B1, the binding result was “no binding”.

B2: Gli3 (other)
chain: MEAQSHSSTTTEKKKVENSIVKCSTRTDVSEKAVASSTTSNEDESPGQTYHRERRNAITMQPQNVQGLSKVSEEPSTSSDERASLIKKEIHGSLPHVAEPSVPYRGTVFAMDPRNGYMEPHYHPPHLFPAFHPPVPIDARHHEGRYHYDPSPIPPLHMTSALSSSPTYPDLPFIRISPHRNPTAASESPFSPPHPYINPYMDYIRSLHSSPSLSMISATRGLSPTDAPHAGVSPAEYYHQMALLTGQRSPYADIIPSAATAGTGAIHMEYLHAMDSTRFSSPRLSARPSRKRTLSISPLSDHSFDLQTMIRTSPNSLVTILNNSRSSSSASGSYGHLSASAISPALSFTYSSAPVSLHMHQQILSRQQSLGSAFGHSPPLIHPAPTFPTQRPIPGIPTVLNPVQVSSGPSESSQNKPTSESAVSSTGDPMHNKRSKIKPDEDLPSPGARGQQEQPEGTTLVKEEGDKDESKQEPEVIYETNCHWEGCAREFDTQEQLVHHINNDHIHGEKKEFVCRWLDCSREQKPFKAQYMLVVHMRRHTGEKPHKCTFEGCTKAYSRLENLKTHLRSHTGEKPYVCEHEGCNKAFSNASDRAKHQNRTHSNEKPYVCKIPGCTKRYTDPSSLRKHVKTVHGPEAHVTKKQRGDIHPRPPPPRDSGSHSQSRSPGRPTQGALGEQQDLSNTTSKREECLQVKTVKAEKPMTSQPSPGGQSSCSSQQSPISNYSNSGLELPLTDGGSIGDLSAIDETPIMDSTISTATTALALQARRNPAGTKWMEHVKLERLKQVNGMFPRLNPILPPKAPAVSPLIGNGTQSNNTCSLGGPMTLLPGRSDLSGVDVTMLNMLNRRDSSASTISSAYLSSRRSSGISPCFSSRRSSEASQAEGRPQNVSVADSYDPISTDASRRSSEASQSDGLPSLLSLTPAQQYRLKAKYAAATGGPPPTPLPNMERMSLKTRLALLGDALEPGVALPPVHAPRRCSDGGAHGYGRRHLQPHDAPGHGVRRASDPVRTGSEGLALPRVPRFSSLSSCNPPAMATSAEKRSLVLQNYTRPEGGQSRNFHSSPCPPSITENVTLESLTMDADANLNDEDFLPDDVVQYLNSQNQAGYEQHFPSALPDDSKVPHGPGDFDAPGLPDSHAGQQFHALEQPCPEGSKTDLPIQWNEVSSGSADLSSSKLKCGPRPAVPQTRAFGFCNGMVVHPQNPLRSGPAGGYQTLGENSNPYGGPEHLMLHNSPGSGTSGNAFHEQPCKAPQYGNCLNRQPVAPGALDGACGAGIQASKLKSTPMQGSGGQLNFGLPVAPNESAGSMVNGMQNQDPVGQGYLAHQLLGDSMQHPGAGRPGQQMLGQISATSHINIYQGPESCLPGAHGMGSQPSSLAVVRGYQPCASFGGSRRQAMPRDSLALQSGQLSDTSQTCRVNGIKMEMKGQPHPLCSNLQNYSGQFYDQTVGFSQQDTKAGSFSISDASCLLQGTSAKNSELLSPGANQVTSTVDSLDSHDLEGVQIDFDAIIDDGDHSSLMSGALSPSIIQNLSHSSSRLTTPRASLPFPALSMSTTNMAIGDMSSLLTSLAEESKFLAVMQ
On to B2, for which the binding result is “no binding”.
